Measured values from patent US20220356258A1 (Boehringer Ingelheim, published 2022).

B1: Spesolimab AP4 fraction (CEX acidic peak fraction AP4) (antibody, human IgG1, kappa, L234A L235A)
heavy: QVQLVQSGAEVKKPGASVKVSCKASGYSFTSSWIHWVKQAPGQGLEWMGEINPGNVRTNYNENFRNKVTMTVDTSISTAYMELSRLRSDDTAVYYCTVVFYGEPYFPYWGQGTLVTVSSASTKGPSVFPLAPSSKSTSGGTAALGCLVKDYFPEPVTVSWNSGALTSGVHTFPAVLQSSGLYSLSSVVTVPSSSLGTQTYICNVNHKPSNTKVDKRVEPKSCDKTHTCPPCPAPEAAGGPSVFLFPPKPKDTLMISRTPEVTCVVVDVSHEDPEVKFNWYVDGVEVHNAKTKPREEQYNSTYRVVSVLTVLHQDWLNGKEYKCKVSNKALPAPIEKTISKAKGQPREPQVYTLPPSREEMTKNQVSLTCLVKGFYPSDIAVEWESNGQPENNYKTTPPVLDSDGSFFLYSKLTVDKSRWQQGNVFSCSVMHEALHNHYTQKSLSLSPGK
light: QIVLTQSPGTLSLSPGERATMTCTASSSVSSSYFHWYQQKPGQAPRLWIYRTSRLASGVPDRFSGSGSGTDFTLTISRLEPEDAATYYCHQFHRSPLTFGAGTKLEIKRTVAAPSVFIFPPSDEQLKSGTASVVCLLNNFYPREAKVQWKVDNALQSGNSQESVTEQDSKDSTYSLSSTLTLSKADYEKHKVYACEVTHQGLSSPVTKSFNRGEC
notes: Humanized IgG1 anti-IL-36R antibody from CHO-DG44 cells; Cation exchange fraction, RT 16.0-18.7 min, 0.5% of total CEX area; also called most acidic fraction AP4
B2: Spesolimab AP1b fraction (CEX acidic peak fraction AP1b) (antibody, human IgG1, kappa, L234A L235A)
heavy: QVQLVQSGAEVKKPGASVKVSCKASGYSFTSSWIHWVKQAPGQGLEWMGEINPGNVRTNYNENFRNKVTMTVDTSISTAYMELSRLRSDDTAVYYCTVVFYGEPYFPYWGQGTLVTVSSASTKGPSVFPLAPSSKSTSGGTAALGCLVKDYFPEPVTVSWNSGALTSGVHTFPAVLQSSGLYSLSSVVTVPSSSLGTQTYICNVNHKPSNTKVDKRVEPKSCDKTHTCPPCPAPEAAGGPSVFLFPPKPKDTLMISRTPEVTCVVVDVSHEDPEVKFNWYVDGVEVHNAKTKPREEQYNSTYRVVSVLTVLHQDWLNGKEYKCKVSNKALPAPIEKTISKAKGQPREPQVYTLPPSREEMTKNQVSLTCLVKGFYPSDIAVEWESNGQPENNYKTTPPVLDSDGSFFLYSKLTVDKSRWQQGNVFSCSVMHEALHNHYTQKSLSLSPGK
light: B1 light
notes: IgG1; Cation exchange fraction, RT 26.0-27.3 min, 7.6% of total CEX area
B3: Spesolimab AP1a fraction (CEX acidic peak fraction AP1a) (antibody, human IgG1, kappa, L234A L235A)
heavy: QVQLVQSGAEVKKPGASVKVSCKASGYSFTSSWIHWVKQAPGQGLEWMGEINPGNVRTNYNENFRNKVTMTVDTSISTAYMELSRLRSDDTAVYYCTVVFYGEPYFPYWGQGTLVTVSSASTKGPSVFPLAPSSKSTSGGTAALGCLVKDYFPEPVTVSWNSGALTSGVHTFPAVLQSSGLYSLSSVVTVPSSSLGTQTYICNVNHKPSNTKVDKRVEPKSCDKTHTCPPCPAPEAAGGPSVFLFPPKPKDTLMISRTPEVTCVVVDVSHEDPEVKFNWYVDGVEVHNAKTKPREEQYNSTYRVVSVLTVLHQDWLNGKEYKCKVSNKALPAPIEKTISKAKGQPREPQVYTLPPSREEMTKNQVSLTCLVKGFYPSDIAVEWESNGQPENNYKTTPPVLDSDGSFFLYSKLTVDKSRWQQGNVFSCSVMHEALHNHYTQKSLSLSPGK
light: B1 light
notes: IgG1; Cation exchange fraction, RT 27.3-28.2 min, 13.6% of total CEX area
B4: Spesolimab AP3b fraction (CEX acidic peak fraction AP3b) (antibody, human IgG1, kappa, L234A L235A)
heavy: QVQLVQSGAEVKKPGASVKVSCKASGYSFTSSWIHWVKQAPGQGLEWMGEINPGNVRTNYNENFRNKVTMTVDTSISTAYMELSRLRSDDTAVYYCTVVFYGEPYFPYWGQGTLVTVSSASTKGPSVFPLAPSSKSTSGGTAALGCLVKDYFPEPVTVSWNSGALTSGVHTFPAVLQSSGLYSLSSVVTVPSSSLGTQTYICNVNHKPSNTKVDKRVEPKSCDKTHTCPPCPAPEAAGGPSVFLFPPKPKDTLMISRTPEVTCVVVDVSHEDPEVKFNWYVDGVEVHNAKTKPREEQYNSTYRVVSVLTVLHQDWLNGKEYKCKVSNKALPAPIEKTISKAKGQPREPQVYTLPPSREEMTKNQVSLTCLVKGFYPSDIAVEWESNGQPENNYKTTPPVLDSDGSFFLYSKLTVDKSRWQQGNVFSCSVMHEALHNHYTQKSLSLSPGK
light: B1 light
notes: IgG1; Cation exchange fraction, RT 18.7-20.6 min, 0.8% of total CEX area
B5: Spesolimab MP fraction (CEX main peak fraction) (antibody, human IgG1, kappa, L234A L235A)
heavy: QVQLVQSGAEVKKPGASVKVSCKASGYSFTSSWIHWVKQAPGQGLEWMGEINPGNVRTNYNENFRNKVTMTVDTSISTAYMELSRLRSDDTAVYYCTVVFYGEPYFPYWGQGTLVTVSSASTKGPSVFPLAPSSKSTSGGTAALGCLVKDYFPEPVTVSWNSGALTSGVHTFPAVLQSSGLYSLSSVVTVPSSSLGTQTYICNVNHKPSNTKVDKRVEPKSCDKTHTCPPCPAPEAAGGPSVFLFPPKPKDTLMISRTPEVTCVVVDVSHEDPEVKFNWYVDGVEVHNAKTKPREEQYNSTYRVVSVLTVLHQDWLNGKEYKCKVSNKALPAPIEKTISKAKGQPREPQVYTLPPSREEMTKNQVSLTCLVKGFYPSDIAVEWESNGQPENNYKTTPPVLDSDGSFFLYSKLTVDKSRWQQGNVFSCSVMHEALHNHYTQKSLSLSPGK
light: B1 light
notes: IgG1
B6: Spesolimab AP3a fraction (CEX acidic peak fraction AP3a) (antibody, human IgG1, kappa, L234A L235A)
heavy: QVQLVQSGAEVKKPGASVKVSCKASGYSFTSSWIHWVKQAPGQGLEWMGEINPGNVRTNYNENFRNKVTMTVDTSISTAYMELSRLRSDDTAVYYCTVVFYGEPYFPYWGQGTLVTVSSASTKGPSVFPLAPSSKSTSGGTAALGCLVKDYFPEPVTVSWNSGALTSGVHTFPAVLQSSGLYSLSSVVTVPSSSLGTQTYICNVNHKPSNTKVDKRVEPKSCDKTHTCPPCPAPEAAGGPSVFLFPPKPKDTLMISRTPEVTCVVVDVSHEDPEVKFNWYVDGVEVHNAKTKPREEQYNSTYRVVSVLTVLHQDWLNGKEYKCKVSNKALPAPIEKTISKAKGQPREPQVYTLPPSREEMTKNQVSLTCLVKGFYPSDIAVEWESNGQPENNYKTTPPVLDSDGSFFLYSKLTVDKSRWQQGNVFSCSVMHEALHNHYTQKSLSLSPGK
light: B1 light
notes: IgG1; Cation exchange fraction, RT 20.6-22.7 min, 2.8% of total CEX area
B7: Spesolimab AP2 fraction (CEX acidic peak fraction AP2) (antibody, human IgG1, kappa, L234A L235A)
heavy: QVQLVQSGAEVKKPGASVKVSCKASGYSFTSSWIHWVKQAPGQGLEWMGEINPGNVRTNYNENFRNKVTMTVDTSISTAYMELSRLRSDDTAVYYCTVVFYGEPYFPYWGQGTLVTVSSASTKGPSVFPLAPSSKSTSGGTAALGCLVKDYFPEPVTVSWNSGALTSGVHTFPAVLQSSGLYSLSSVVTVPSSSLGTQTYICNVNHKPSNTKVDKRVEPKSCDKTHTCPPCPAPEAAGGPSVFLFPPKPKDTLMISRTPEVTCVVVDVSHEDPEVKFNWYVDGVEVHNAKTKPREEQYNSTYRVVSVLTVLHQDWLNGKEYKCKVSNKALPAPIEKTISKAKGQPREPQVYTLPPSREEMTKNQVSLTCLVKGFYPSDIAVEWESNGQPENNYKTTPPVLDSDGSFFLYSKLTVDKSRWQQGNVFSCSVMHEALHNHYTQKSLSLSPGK
light: B1 light
notes: IgG1; Cation exchange fraction, RT 22.7-24.1 min, 2.4% of total CEX area
B8: Spesolimab CMC2 source (Drug Substance source material, unfractionated) (antibody, human IgG1, kappa, L234A L235A)
heavy: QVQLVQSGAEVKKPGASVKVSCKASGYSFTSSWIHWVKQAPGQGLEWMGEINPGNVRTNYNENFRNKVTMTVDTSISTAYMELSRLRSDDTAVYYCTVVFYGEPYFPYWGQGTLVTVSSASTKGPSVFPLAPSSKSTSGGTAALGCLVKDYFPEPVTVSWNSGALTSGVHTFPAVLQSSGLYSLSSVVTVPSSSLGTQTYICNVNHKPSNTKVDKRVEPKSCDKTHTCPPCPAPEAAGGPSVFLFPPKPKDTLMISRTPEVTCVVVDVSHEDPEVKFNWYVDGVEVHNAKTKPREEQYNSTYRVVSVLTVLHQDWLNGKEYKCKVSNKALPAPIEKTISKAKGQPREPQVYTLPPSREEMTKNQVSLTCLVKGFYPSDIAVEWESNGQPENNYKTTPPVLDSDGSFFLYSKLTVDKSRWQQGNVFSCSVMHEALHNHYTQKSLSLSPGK
light: B1 light
notes: Humanized monoclonal IgG1 anti-IL-36R antibody, CAS 2097104-58-8, produced in CHO-DG44 cells; This is the unfractionated material from which the CEX fractions were collected
B9: Spesolimab AP1c fraction (CEX acidic peak fraction AP1c) (antibody, human IgG1, kappa, L234A L235A)
heavy: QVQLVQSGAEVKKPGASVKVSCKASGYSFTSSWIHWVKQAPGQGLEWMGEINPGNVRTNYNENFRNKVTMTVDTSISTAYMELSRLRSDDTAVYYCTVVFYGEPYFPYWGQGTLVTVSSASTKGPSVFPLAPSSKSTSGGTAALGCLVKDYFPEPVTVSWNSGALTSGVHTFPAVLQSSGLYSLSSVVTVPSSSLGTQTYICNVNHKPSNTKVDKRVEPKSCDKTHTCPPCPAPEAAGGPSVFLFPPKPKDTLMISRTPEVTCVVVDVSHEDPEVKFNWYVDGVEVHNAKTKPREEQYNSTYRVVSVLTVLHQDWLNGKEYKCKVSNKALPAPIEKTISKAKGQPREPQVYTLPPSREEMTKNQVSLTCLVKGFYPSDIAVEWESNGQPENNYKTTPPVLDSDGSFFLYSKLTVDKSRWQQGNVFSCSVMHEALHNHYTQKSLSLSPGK
light: B1 light
notes: IgG1; Cation exchange fraction, RT 24.1-26.0 min, 2.2% of total CEX area
B10: Spesolimab BP2 fraction (CEX basic peak fraction BP2) (antibody, human IgG1, kappa, L234A L235A)
heavy: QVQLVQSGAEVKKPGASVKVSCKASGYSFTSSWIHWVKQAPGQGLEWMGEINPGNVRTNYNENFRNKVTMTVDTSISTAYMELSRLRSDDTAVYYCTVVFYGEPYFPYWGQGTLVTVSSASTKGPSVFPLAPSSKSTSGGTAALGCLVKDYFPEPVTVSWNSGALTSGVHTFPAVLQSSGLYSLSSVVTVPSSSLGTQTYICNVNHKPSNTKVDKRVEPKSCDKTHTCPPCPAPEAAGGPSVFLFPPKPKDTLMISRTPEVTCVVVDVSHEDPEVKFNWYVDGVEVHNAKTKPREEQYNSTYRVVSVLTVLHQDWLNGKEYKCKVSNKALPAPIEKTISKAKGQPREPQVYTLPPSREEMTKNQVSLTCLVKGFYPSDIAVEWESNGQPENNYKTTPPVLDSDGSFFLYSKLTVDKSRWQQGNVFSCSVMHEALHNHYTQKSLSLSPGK
light: B1 light
notes: IgG1; Cation exchange fraction, RT 31.7-33.5 min, 2.4% of total CEX area
B11: Spesolimab BP1 fraction (CEX basic peak fraction BP1) (antibody, human IgG1, kappa, L234A L235A)
heavy: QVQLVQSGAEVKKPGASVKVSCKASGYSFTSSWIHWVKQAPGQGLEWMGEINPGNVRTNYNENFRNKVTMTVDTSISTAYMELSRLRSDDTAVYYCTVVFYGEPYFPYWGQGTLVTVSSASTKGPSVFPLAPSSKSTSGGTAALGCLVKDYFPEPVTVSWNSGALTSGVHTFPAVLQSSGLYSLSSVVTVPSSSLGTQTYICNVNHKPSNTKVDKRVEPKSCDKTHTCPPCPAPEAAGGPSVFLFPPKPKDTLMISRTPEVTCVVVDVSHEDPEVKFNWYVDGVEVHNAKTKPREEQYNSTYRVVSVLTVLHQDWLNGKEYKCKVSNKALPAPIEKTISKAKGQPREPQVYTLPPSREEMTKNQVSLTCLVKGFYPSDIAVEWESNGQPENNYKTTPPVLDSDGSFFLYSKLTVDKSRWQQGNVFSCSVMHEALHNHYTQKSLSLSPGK
light: B1 light
notes: IgG1; Cation exchange fraction, RT 30.2-31.7 min, 3.75% of total CEX area
B12: Spesolimab BP3 fraction (CEX basic peak fraction BP3) (antibody, human IgG1, kappa, L234A L235A)
heavy: not shown
light: B1 light
notes: IgG1; Cation exchange fraction, RT 33.5-36.2 min, 1.3% of total CEX area; also called most basic fraction BP3

Target: T1, IL-36 receptor (IL-36R) (UniProt Q9HB29 20-335, limits assumed)
T1 sequence (looked up): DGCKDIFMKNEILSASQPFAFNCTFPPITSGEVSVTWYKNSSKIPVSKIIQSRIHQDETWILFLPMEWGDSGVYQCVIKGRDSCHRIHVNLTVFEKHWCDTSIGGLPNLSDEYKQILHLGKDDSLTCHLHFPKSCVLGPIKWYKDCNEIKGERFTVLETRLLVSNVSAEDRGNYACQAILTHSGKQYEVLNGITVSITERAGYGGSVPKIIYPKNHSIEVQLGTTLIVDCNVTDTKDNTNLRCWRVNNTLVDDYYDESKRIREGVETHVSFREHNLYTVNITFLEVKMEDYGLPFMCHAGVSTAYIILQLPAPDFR
Assay: cell-based or functional assay

| Binder | IL36R bioassay Potency [%] |
| --- | --- |
| B1 | 60 |
| B2 | 99 |
| B3 | 102 |
| B4 | 80 |
| B5 | 110 |
| B6 | 91 |
| B7 | 94 |
| B8 | 91 |
| B9 | 102 |
| B10 | 97 |
| B11 | 97 |

Target: T1, IL-36 receptor (IL-36R)
Assay: SPR, second step: IL36R binding activity of the species bound to protein A/G

| Binder | Potency [%] (IL36R binding, SPR) |
| --- | --- |
| B1 | 93 |
| B2 | 100 |
| B3 | 99 |
| B4 | 93 |
| B5 | 102 |
| B6 | 98 |
| B12 | 100 |
| B7 | 99 |
| B8 | 101 |
| B9 | 100 |
| B10 | 100 |
| B11 | 100 |

Target: T2, FcRn (Homo sapiens (Human), UniProt P55899 24-297; P61769 21-119)
T2 construct: In nature it is a heterodimer of the FcRn alpha chain and beta-2-microglobulin; also called neonatal Fc receptor; copies: 1 + 1
Assay: SPR, FcRn binding

| Binder | Binding [%] (FcRn binding, SPR) |
| --- | --- |
| B1 | 69 |
| B2 | 89 |
| B3 | 92 |
| B4 | 84 |
| B5 | 95 |
| B6 | 88 |
| B8 | 94 |
| B9 | 90 |
| B10 | 91 |
| B11 | 95 |

Target: T3, protein A/G (immobilized on the SPR sensor chip)
T3 construct: Capture protein in the first step of the IL36R SPR assay; also called protein A/G sensor chip
Assay: SPR, first step: capture on protein A/G immobilized on the sensor chip

| Binder | Recovery [%] (amount of species binding to protein A/G) |
| --- | --- |
| B1 | 75 |
| B2 | 92 |
| B3 | 93 |
| B4 | 87 |
| B5 | 95 |
| B6 | 88 |
| B12 | 70 |
| B7 | 90 |
| B8 | 93 |
| B9 | 90 |
| B10 | 84 |
| B11 | 93 |
